Assay results from article PMC12524728, “Integrating Structural Bioinformatics and Functional Mechanisms of Sesquiterpene Synthases CARS and CADS in Lavandula angustifolia (Lavender)” (International Journal of Molecular Sciences, 2025).

Experiments:
Test in all cases: enzyme kinetics, Hanes-Woolf plot
Type in all cases: biochemical, Lavandula angustifolia
Conditions in all cases: Mg2+-dependent enzyme; assay conditions only in supplement
[1] = test system: T1, CC(C)=CCC/C(C)=C/CC/C(C)=C/CO[P@@](=O)(O)OP(=O)(O)O
T1 construct: C-terminal deletion of residues 522-548; host and tags only in supplement
Source text: enzyme kinetics, Hanes-Woolf plot on ∆522–548 (CARS)

[2] = test system: T2, CC(C)=CCC/C(C)=C/CC/C(C)=C/CO[P@@](=O)(O)OP(=O)(O)O
T2 construct: C-terminal deletion of residues 529-555; host and tags only in supplement
Source text: enzyme kinetics, Hanes-Woolf plot on ∆529–555 (CADS)

[3] = substrate: CC(C)=CCC/C(C)=C/CC/C(C)=C/CO[P@@](=O)(O)OP(=O)(O)O
Source text: enzyme kinetics, Hanes-Woolf plot on ∆1–226 (CARS)

[4] = substrate: CC(C)=CCC/C(C)=C/CC/C(C)=C/CO[P@@](=O)(O)OP(=O)(O)O; remark: listed apart in the source
Source text: enzyme kinetics, Hanes-Woolf plot on CARS (wild-type, full-length)

[5] = substrate: CC(C)=CCC/C(C)=C/CC/C(C)=C/CO[P@@](=O)(O)OP(=O)(O)O; remark: listed apart in the source
Source text: enzyme kinetics, Hanes-Woolf plot on CADS (wild-type, full-length)

[6] = substrate: CC(C)=CCC/C(C)=C/CC/C(C)=C/CO[P@@](=O)(O)OP(=O)(O)O; remark: listed apart in the source
Source text: enzyme kinetics, Hanes-Woolf plot on ∆1–228 (CADS)

Molecule: ∆522–548 (CARS) (Lavandula angustifolia; DEL522-548)
- Km [1]: 4.96 ± 0.17 µM
- kcat [1]: 0.391 ± 0.0115 s⁻¹

Molecule: ∆529–555 (CADS) (Lavandula angustifolia; DEL529-555)
- Km [2]: 7.13 ± 0.29 µM
- kcat [2]: 0.44 ± 0.00883 s⁻¹

B1: ∆1–226 (CARS) (Lavandula angustifolia) (protein)
chain: ETLLNFAKLDFNLVQKIHQKELNQITRWWKELDFGKNLPFARDRPVECYFWIVGVYFEPRYGIARTLLTKIIYLASVLDDIYDVYGTLAELTIFTQIIRRWDSDAMDQLPPYMRIYCKALFDVYVEMEEEMGKIRKSYAVEYAKKEMKRLAEMYFQEAQWAFSKYKPTMKEYLKVALISSGYMMMTINSLTTIEDLITEEEFNWILSEPRILRASLTITRLMDDLAGYGTEGKMSAVHYYMAENGVSEGEAFKEVSGIIKSAWKDVNAECVEPRAASTTILRCVVDFTRVIVLLYSDEDAYGNSQTKTKDLIKSVLVDPLII
notes: N-terminal deletion of residues 1-226; host and tags only in supplement
- Km [3]: 9.57 ± 0.24 µM
- kcat [3]: 0.24 ± 0.00533 s⁻¹

B2: CARS (wild-type, full-length) (Lavandula angustifolia) (protein)
chain: MAAPISTNNVCSDDARPVTYHPNVWSDYFLRYTSELTEISVAKKEEHERQKEAIRNLLLQTRDDSTLKLELVDAIQRLGIGYHFEEEIHNSLRNIYDTNPIYNAEDDNLRVAALRFRLIRQQGFPAPCDVFRKFVDEEGEFKSWVSNDVEGLLNLYEASNFAVHGEEILEKALEFCSLRLEFLTQGMTNSLSMRVKEALKIPISKTLTRLGARKFMSMYQEDESHNETLLNFAKLDFNLVQKIHQKELNQITRWWKELDFGKNLPFARDRPVECYFWIVGVYFEPRYGIARTLLTKIIYLASVLDDIYDVYGTLAELTIFTQIIRRWDSDAMDQLPPYMRIYCKALFDVYVEMEEEMGKIRKSYAVEYAKKEMKRLAEMYFQEAQWAFSKYKPTMKEYLKVALISSGYMMMTINSLTTIEDLITEEEFNWILSEPRILRASLTITRLMDDLAGYGTEGKMSAVHYYMAENGVSEGEAFKEVSGIIKSAWKDVNAECVEPRAASTTILRCVVDFTRVIVLLYSDEDAYGNSQTKTKDLIKSVLVDPLII
notes: full-length, codon-optimised gene; monomer by DLS; host and tags only in supplement
- Km [4]: 11.34 ± 0.13 µM
- kcat [4]: 0.104 ± 0.00183 s⁻¹

B3: CADS (wild-type, full-length) (Lavandula angustifolia) (protein)
chain: MATSAVVNCLGGVRPHTIRYEPNMWTHTFSNFSIDEQVQGEYAEEIEALKQEVRSMLTAATTCKEQLILIDTLERLGLSYHFETEIEQKLKEIILHINREEDASGGDCDLYTTSLGFRVIRQHQYHISCGVFEKYLDKDGKFEESLSSDTEGILSLYEAAHVRFRDETLLQEAARFSRHHLKGMEEVLESPLREKVQRALQHPLHRDIPIFYAHFFISNIYQKDDSRNELLLKLAKSNFMFLQNLYKEELSQLSRWWNKFDLKSKLPYARDRLVEAYIWGVGYHYEPRYAYVRRGLVIGIQIIAIMDDTYDNYATVDEAQLFTEMFERWSMDGIDGVPDYLKIAYHFVVSAFEDYERDAGKLGKQFAAPYFKQTIQQLARAYNQELKWVMGTQSMPSFQDYAKNSEITSCIYIMSASVFHGLESVTQETIDWLKNEPNFAVSTGMIGRYWDDIGSHERESRGGKMLTAVGCYMKQYGVSKKEAVRKFREQVEDLWKDVNKGYTAMTCMPRETAVLFLNYARMCDASYTENNDDGYTDPDFSKRKISALFLDPLVF
notes: as for B2
- Km [5]: 15.86 ± 0.21 µM
- kcat [5]: 0.0993 ± 0.00383 s⁻¹

B4: ∆1–228 (CADS) (Lavandula angustifolia) (protein)
chain: ELLLKLAKSNFMFLQNLYKEELSQLSRWWNKFDLKSKLPYARDRLVEAYIWGVGYHYEPRYAYVRRGLVIGIQIIAIMDDTYDNYATVDEAQLFTEMFERWSMDGIDGVPDYLKIAYHFVVSAFEDYERDAGKLGKQFAAPYFKQTIQQLARAYNQELKWVMGTQSMPSFQDYAKNSEITSCIYIMSASVFHGLESVTQETIDWLKNEPNFAVSTGMIGRYWDDIGSHERESRGGKMLTAVGCYMKQYGVSKKEAVRKFREQVEDLWKDVNKGYTAMTCMPRETAVLFLNYARMCDASYTENNDDGYTDPDFSKRKISALFLDPLVF
notes: N-terminal deletion of residues 1-228; host and tags only in supplement
- Km [6]: 11.13 ± 0.37 µM
- kcat [6]: 0.2937 ± 0.00233 s⁻¹
